Measured values as given in US20220089647A1 (FUJIFILM, published 2022).
Starred links: 1 amine or outer side, 2 acyl side, 3 side chain; linkers in the order of their positions; H or OH if unused. Positions of bridges follow the written chain, without caps; N, C: chain ends. Non-standard residues stand in square brackets, D forms with d. Primed or numbered codes have the meaning given here. No end group written: not given here. Dab(acetyl)″ = 2-amino-4-(acetylamino)butanoic acid, acetyl CH3 carbon bonded to the S of Hcy (S-CH2-C(=O)-NH-), O=C(C[*:3])NCC[C@H](N[*:1])C(=O)[*:2]; Dab(acetyl) = 2-amino-4-acetylamino-butanoic acid residue (N-γ-acetyl-diaminobutyric acid), CC(=O)NCC[C@H](N[*:1])C(=O)[*:2]; Dap(acetyl) = 2-amino-3-acetylamino-propanoic acid residue, CC(=O)NC[C@H](N[*:1])C(=O)[*:2]; COCH2 = acetyl group that carries the bridge; hCys = N[C@@H](CCS)C(=O)O; Dab = NCC[C@H](N)C(=O)O

B1: Cyclic peptide 144 (peptide)
peptide: KKK[hCys]DPRGDTFA[Dab(acetyl)]
modifications: thioether 4-13
B2: Cyclic peptide 147 (peptide)
peptide: KKK[hCys]TPRGDTFA[Dab(acetyl)]
modifications: thioether 4-13
B3: Cyclic peptide 145 (peptide)
peptide: KKK[hCys]EPRGDTFA[Dab(acetyl)]
modifications: thioether 4-13
B4: Cyclic peptide 148 (peptide)
peptide: KKK[hCys]YPRGDTFA[Dab(acetyl)]
modifications: thioether 4-13
B5: Cyclic peptide 146 (peptide)
peptide: KKK[hCys]LPRGDTFA[Dab(acetyl)]
modifications: thioether 4-13
B6: Cyclic peptide 153 (peptide)
peptide: KKK[hCys]VPRGDTFS[Dab(acetyl)]
modifications: thioether 4-13
B7: Cyclic peptide 150 (peptide)
peptide: KKK[hCys]VTRGDTFA[Dab(acetyl)]
modifications: thioether 4-13
B8: Cyclic peptide 152 (peptide)
peptide: KKK[hCys]VPRGDTFG[Dab(acetyl)]
modifications: thioether 4-13
B9: Cyclic peptide 149 (peptide)
peptide: KKK[hCys]VSRGDTFA[Dab(acetyl)]
modifications: thioether 4-13
B10: Cyclic peptide 155 (peptide)
peptide: KKK[hCys]TTRGDTFA[Dab(acetyl)]
modifications: thioether 4-13
B11: Cyclic peptide 151 (peptide)
peptide: KKK[hCys]VPRGDVFA[Dab(acetyl)]
modifications: thioether 4-13
B12: Cyclic peptide 160 (peptide)
peptide: KKKA[hCys]TPRGDTFA[Dab](COCH2)A
modifications: thioether 5-14
B13: Cyclic peptide 47 (peptide)
peptide: KKKA[Dap(acetyl)]EPRGDNYR[hCys]
modifications: thioether 5-14
B14: Cyclic peptide 73 (peptide)
peptide: KKKGXIPRGDXFRXA
modifications: not fully specified; KKKG-(Hcy)-IPRGD-(HmS)-FR(Dab(acetyl))A; HmS = homoserine; thioether bond Hcy-Dab(acetyl)
B15: Cyclic peptide 15 (peptide)
peptide: KKK[hCys]AIPRGDNFR[Dab(acetyl)]A
modifications: thioether 4-14
B16: Cyclic peptide 44 (peptide)
peptide: KKK[hCys]EPRGDNYR[Dab(acetyl)″]
modifications: thioether 4-13
B17: Cyclic peptide 131 (peptide)
peptide: KKKGXIPRGDTFRXA
modifications: not fully specified; KKKG-(Pen)-IPRGDTFR(Lys(acetyl))A; thioether bond Pen-Lys(acetyl)
B18: Cyclic peptide 133 (peptide)
peptide: KKKGXIPRGDTFRXA
modifications: not fully specified; KKKG(Dab(acetyl))IPRGDTFR-(Pen)-A; thioether bond Dab(acetyl)-Pen
B19: Cyclic peptide 129 (peptide)
peptide: KKKGXIPRGDTFRXA
modifications: not fully specified; KKKG-(Pen)-IPRGDTFR(Dab(acetyl))A; thioether bond Pen-Dab(acetyl)
B20: Cyclic peptide 17 (peptide)
peptide: KKK[hCys]AIPRGDNFRA[Dab](COCH2)A
modifications: thioether 4-15
B21: Cyclic peptide 18 (peptide)
peptide: KKK[hCys]AAIPRGDNFR[Dab](COCH2)A
modifications: thioether 4-15
B22: Cyclic peptide 16 (peptide)
peptide: KKK[hCys]IPRGDNFRA[Dab](COCH2)A
modifications: thioether 4-14
B23: Cyclic peptide 53 (peptide)
peptide: KKKA[Dap(acetyl)]EPRGDNYR[hCys]-NH2
modifications: thioether 5-14
B24: Cyclic peptide 65 (peptide)
peptide: KKK[hCys]IPRGDVF[Dab(acetyl)″]
modifications: thioether 4-12
B25: Cyclic peptide 138 (peptide)
peptide: KKKGXIPRGDTFRCA
modifications: not fully specified; KKKG(Dab(acetyl))IPRGDTFR(C)A; thioether bond Dab(acetyl)-Cys
B26: Cyclic peptide 49 (peptide)
peptide: KKK[hCys]EPRGDNYR[Dab(acetyl)″]-NH2
modifications: thioether 4-13; N-terminus assumed
SMILES: N=C(N)NCCC[C@@H]1NC(=O)[C@H](Cc2ccc(O)cc2)NC(=O)[C@H](CC(N)=O)NC(=O)[C@H](CC(=O)O)NC(=O)CNC(=O)[C@H](CCCNC(=N)N)NC(=O)[C@@H]2CCCN2C(=O)[C@H](CCC(=O)O)NC(=O)[C@@H](NC(=O)[C@H](CCCCN)NC(=O)[C@H](CCCCN)NC(=O)[C@@H](N)CCCCN)CCSCC(=O)NCC[C@@H](C(N)=O)NC1=O
B27: Cyclic peptide 135 (peptide)
peptide: KKKGXIPRGDTFRXA
modifications: not fully specified; KKKG(Lys(acetyl))IPRGDTFR-(Pen)-A; thioether bond Lys(acetyl)-Pen
B28: Cyclic peptide 22 (peptide)
peptide: KKK[hCys]DPRGDNFR[Dab](COCH2)A
modifications: thioether 4-13
B29: Cyclic peptide 26 (peptide)
peptide: KKK[hCys]IPRGDNYR[Dab](COCH2)A
modifications: thioether 4-13
B30: Cyclic peptide 25 (peptide)
peptide: KKK[hCys]IPRGDSFR[Dab](COCH2)A
modifications: thioether 4-13
B31: Cyclic peptide 45 (peptide)
peptide: KKKA[hCys]EPRGDNYR[Dab(acetyl)″]
modifications: thioether 5-14
B32: Cyclic peptide 8 (peptide)
peptide: KKKGXPRGDNFRXA
modifications: not fully specified; KKKG-(Hcy)-PRGDNFR(Dab(acetyl))A; thioether bond Hcy-Dab(acetyl)
B33: Cyclic peptide 52 (peptide)
peptide: KKK[Dap(acetyl)]EPRGDNYR[hCys]-NH2
modifications: thioether 4-13
B34: Cyclic peptide 46 (peptide)
peptide: KKK[Dap(acetyl)]EPRGDNYR[hCys]
modifications: thioether 4-13
B35: Cyclic peptide 6 (peptide)
peptide: KKKG[hCys]IPRGDNF[Dab(acetyl)″]A
modifications: thioether 5-13
B36: Cyclic peptide 42 (peptide)
peptide: KKKA[hCys]EPRGDNYR[Dab(acetyl)″]D
modifications: thioether 5-14
B37: Cyclic peptide 41 (peptide)
peptide: KKKA[hCys]EPRGDNYR[Dab(acetyl)″]A
modifications: thioether 5-14
B38: Cyclic peptide 38 (peptide)
peptide: KKKD[hCys]EPRGDNYR[Dab](COCH2)D
modifications: thioether 5-14
B39: Cyclic peptide 36 (peptide)
peptide: KKKA[hCys]EPRGDNYE[Dab](COCH2)D
modifications: thioether 5-14
B40: Cyclic peptide 37 (peptide)
peptide: KKKG[hCys]EPRGDNYR[Dab](COCH2)D
modifications: thioether 5-14
B41: Cyclic peptide 43 (peptide)
peptide: KKKA[hCys]EPRGDNYR[Dab(acetyl)″]E
modifications: thioether 5-14
B42: Cyclic peptide 40 (peptide)
peptide: KKKA[hCys]EPRGDNYR[Dab(acetyl)″]G
modifications: thioether 5-14
B43: Cyclic peptide 29 (peptide)
peptide: KKKA[hCys]VPRGDNYR[Dab](COCH2)D
modifications: thioether 5-14
B44: Cyclic peptide 20 (peptide)
peptide: KKKG[hCys]AIPRGDNFRA[Dab](COCH2)A
modifications: thioether 5-16

Target: T1, human integrin αvβ5 (human, UniProt P06756 31-992; P18084 24-719, limits assumed)
T1 construct: Heterodimer flowed as analyte at 30, 100, 300 and 1,000 nM in HEPES buffer with 5 mM MgCl2
Assay: SPR, Biacore 3000, peptide immobilised; A = KD 50 nM or less

T1 sequence (P06756 31-992 limits assumed, chain 1 of 2): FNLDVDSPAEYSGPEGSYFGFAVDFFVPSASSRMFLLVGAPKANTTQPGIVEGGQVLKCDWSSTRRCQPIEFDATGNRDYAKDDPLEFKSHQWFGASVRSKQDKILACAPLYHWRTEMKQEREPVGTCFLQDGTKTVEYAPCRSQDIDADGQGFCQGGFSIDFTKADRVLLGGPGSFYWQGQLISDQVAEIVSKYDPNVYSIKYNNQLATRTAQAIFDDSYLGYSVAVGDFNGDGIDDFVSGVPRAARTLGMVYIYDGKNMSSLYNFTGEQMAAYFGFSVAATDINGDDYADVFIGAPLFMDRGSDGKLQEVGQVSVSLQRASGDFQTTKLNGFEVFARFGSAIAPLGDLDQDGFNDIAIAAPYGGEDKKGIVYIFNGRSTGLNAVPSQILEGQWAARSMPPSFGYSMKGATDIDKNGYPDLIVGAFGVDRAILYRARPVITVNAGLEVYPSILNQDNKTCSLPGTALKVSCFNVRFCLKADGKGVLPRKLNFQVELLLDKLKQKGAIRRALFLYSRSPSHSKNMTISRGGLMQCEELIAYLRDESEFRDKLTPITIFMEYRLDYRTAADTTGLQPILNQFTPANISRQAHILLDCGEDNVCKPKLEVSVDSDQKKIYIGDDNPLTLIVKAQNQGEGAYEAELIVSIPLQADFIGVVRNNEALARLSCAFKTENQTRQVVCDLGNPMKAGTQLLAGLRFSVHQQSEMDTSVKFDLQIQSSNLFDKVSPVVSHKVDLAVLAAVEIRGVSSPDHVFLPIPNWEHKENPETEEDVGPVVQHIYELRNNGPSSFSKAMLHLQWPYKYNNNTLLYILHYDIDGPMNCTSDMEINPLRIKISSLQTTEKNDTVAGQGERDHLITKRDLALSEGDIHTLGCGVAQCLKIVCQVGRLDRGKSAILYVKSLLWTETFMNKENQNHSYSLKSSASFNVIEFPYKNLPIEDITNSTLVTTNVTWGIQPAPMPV
T1 sequence (P18084 24-719 limits assumed, chain 2 of 2): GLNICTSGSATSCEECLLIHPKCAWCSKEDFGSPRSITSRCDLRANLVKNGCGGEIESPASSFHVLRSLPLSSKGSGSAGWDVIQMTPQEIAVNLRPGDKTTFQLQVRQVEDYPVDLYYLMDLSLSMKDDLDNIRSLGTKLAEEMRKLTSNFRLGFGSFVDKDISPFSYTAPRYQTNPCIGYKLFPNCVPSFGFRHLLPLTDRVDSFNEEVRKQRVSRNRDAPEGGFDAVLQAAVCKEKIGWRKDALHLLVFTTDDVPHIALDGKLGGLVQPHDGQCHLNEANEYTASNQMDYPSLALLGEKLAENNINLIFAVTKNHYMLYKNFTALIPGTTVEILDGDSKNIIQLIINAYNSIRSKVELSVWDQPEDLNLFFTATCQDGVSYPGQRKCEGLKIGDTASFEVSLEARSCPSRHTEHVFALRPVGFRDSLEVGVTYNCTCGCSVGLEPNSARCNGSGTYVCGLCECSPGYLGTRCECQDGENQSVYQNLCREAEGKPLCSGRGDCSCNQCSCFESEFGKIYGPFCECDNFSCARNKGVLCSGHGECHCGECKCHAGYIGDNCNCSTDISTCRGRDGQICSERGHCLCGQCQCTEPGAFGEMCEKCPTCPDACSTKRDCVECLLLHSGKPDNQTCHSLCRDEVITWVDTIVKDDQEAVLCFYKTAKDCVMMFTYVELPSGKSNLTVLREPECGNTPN

| dissociation constant (KD) | Binder |
| --- | --- |
| ≤ 50 nM | B1 |
| ≤ 50 nM | B2 |
| ≤ 50 nM | B3 |
| ≤ 50 nM | B4 |
| ≤ 50 nM | B5 |
| ≤ 50 nM | B6 |
| ≤ 50 nM | B7 |
| ≤ 50 nM | B8 |
| ≤ 50 nM | B9 |
| ≤ 50 nM | B10 |
| ≤ 50 nM | B11 |
| ≤ 50 nM | B12 |

Target: T1, human integrin αvβ5
Assay: SPR, Biacore 3000, peptide immobilised; B = KD more than 50 nM and 100 nM or less
Procedure: However, only for the cyclic peptides 125, 126, and 127, in which the number of lysine residues having an amino group as the immobilizing functional group was zero, the amount of the sample solution to be supplied to the sensor chip was set to 500 μL instead of 20 μL. Further, 70 μL of the mixed aqueous solution of 0.2 M EDC and 0.04 M NHS was added to another flow channel of the same sensor chip without immobilizing the sample, and then blocking treatment and washing treatment were carried out. Hereinafter, the obtained immobilization-treated sensor chip is referred to as an “immobilization-treated sensor chip A”.
After adding human integrin αvβ5 for 10 minutes at 25° C., which was diluted to 30 nM using a HEPES buffer solution to which magnesium chloride was added to 5 mM, in each flow channel of the immobilization-treated sensor chip A prepared in (1) above, the same HEPES buffer solution (containing 5 mM magnesium chloride) was allowed to flow as a running buffer for 30 minutes, and measurement was carried out with Biacore 3000. Then, a regeneration treatment of removing human integrin αvβ5 was carried out by allowing a 0.5 M EDTA aqueous solution to flow through each flow channel for 10 minutes. Further, the above-described measurement process consisting of adding integrin for 10 minutes, allowing a running buffer to flow for 30 minutes, carrying out measurement with Biacore 3000, and carrying out regeneration treatment with 0.5 M EDTA aqueous solution was carried out in the same manner for 100 nM human integrin αvβ5, 300 nM human integrin αvβ5, and 1,000 nM human integrin αvβ5. Dissociation constant between the cyclic peptide and human integrin αvβ5 was calculated from the difference between the value measured by Biacore 3000 in the flow channel immobilized with the cyclic peptide and the value measured by Biacore 3000 in the flow channel unimmobilized with the cyclic peptide, in a case where each concentration of human integrin αvβ5 was allowed to flow, and the integrin binding property was evaluated according to the following evaluation standards. It is preferable that the evaluation result satisfies the evaluation standard A, B, or C.

| dissociation constant (KD) | dissociation constant | Binder |
| --- | --- | --- |
| 50 to 100 nM |  | B13 |
|  | 50 to 100 nM | B14 |
| 50 to 100 nM |  | B15 |
| 50 to 100 nM |  | B16 |
|  | 50 to 100 nM | B17 |
|  | 50 to 100 nM | B18 |
|  | 50 to 100 nM | B19 |
| 50 to 100 nM |  | B20 |
| 50 to 100 nM |  | B21 |
| 50 to 100 nM |  | B22 |
| 50 to 100 nM |  | B23 |
|  | 50 to 100 nM | B24 |
|  | 50 to 100 nM | B25 |
| 50 to 100 nM |  | B26 |
|  | 50 to 100 nM | B27 |
| 50 to 100 nM |  | B28 |

| dissociation constant (KD) | dissociation constant | Binder |
| --- | --- | --- |
| 50 to 100 nM |  | B29 |
| 50 to 100 nM |  | B30 |
| 50 to 100 nM |  | B31 |
| 50 to 100 nM |  | B32 |
| 50 to 100 nM |  | B33 |
| 50 to 100 nM |  | B34 |
| 50 to 100 nM |  | B35 |
| 50 to 100 nM |  | B36 |
| 50 to 100 nM |  | B37 |
| 50 to 100 nM |  | B38 |
| 50 to 100 nM |  | B39 |
| 50 to 100 nM |  | B40 |
| 50 to 100 nM |  | B41 |
| 50 to 100 nM |  | B42 |
| 50 to 100 nM |  | B43 |
| 50 to 100 nM |  | B44 |
